Consider 13 substances from patent US20140370021A1.

As usually defined, the Kd is the constant that tells how readily two partners part at equilibrium.

For assay [1], the target named is extracellular region of human R131 FcγRIIa, GST-tagged (human) (UniProt P12318). The assay can be described thus: AlphaScreen competition: the antibody displaces biotinylated WT antibody (donor beads) from GST-tagged human R131 FcγRIIa (acceptor beads). On the technique in general: Bead proximity is the source of the signal in Alpha formats.
Assay [2] addresses extracellular region of human V158 FcγRIIIa fused with glutathione S-transferase (GST) (human) (UniProt P08637). The assay can be described thus: AlphaScreen competition as in Example 2 (biotinylated WT antibody on donor beads, GST-tagged human V158 FcγRIIIa on acceptor beads); Fc variants in the context of trastuzumab.
Assay [3] concerns the target F158 FcγRIIIa as used in SPR (UniProt P08637). As to the kind of experiment: SPR. In general terms: In SPR one partner is held on a chip, and binding of the other changes the refractive index at the surface.
The target in assay [4] is His-tagged V158 FcγRIIIa (UniProt P08637). The assay can be described thus: SPR, receptor immobilized.
Assay [5] deals with extracellular region of human V158 FcγRIIIa fused with glutathione S-transferase (GST) (human) (UniProt P08637). As to the kind of experiment: AlphaScreen competition.
Assay [6] concerns the target bacterial protein A (UniProt P38507). The assay can be described thus: AlphaScreen competition: the antibody displaces biotinylated WT alemtuzumab (donor beads) from protein A coupled directly to acceptor beads.
Assay [7] deals with FcγRIIIa on human PBMCs, heterozygous V158/F158 (human) (UniProt P08637). The assay can be described thus: cell-based or functional assay.

In the case of S239D/A330L/I332E (antibody), the IC50 (read off the curve) in assay [1] came out at 7 nM.

In turn, S239D/A330Y/I332E (antibody) yielded an IC50 (read off the curve) in assay [1] of 3 nM.

For the substance S239D/S298A/I332E (antibody), the IC50 (read off the curve) in assay [1] was 4 nM.

In assay [1], S239N/A330Y/I332E (antibody) showed an IC50 (read off the curve) of 6 nM.

As for S239N/I332E (antibody), in assay [2], the IC50 (read off the curve) amounted to 0.7 nM.

Take “WT alemtuzumab (Campath), IgG1, expressed in 293T cells (antibody)”: the Kd in assay [3] worked out at 730 nM; in assay [4], 68 nM.

As to “alemtuzumab Fc variant 192 (V264E/N297D/I332E by Table 60; printed V264I/N297D/I332E in Table 61) (antibody)”, the FcγRIIIa Fold in assay [5] stood at 0.05 fold vs WT.

With alemtuzumab I332E (antibody), the Kd in assay [3] worked out at 72 nM; in assay [4], 31 nM. In assay [6], the IC50 (read off the curve) was 1e-09 2M.

Turning to alemtuzumab S239D/I332E (antibody), the IC50 (read off the curve) in assay [1] stood at 3 nM. Besides, in assay [7], the ADCC EC50 worked out at 3 ng/mL and the ADCC log(EC50) is 0.49 log(ng/ml).

alemtuzumab S298A (antibody): the Kd in assay [3] came out at 285 nM; in assay [4] it was 52 nM.

Take “alemtuzumab S298A/E333A/K334A (antibody)”: the figures for the dissociation constant Kd in assay [3] and in assay [4] were 156 nM and 39 nM, respectively.

Take alemtuzumab V264I (antibody): the figures for the Kd in assay [3] and in assay [4] were 550 nM and 64 nM, respectively. Moreover, the IC50 (read off the curve) in assay [6] was 1e-09 2M.

Take alemtuzumab V264I/I332E (antibody): the Kd was 52 nM in assay [3] and 17 nM in assay [4]. Further, the ADCC EC50 in assay [7] is 4 ng/mL. For the same substance, the ADCC log(EC50) in assay [7] is 0.6 log(ng/ml).
